Source: article PMC8854693, “Development and characterization of functional antibodies targeting NMDA receptors” (Nature Communications, 2022)

B1: IgG2, mouse monoclonal antibody against the GluN1-GluN2B NMDA receptor (antibody, V domains shown)
VH: DVKLQESGGGLVQPGGSLKLSCAASGFTFSSYTMSWVRQTPEKRLEWVAYISNGGGGTYYPDTVKGRFTISRDNAKNTLYLQMNSLKEDTAMYYCARPSRGGSSYWYFDVWGAGTTVTVSS
VL: DIQMTQSPSSLSASLGGKVTITCKASQDINKYIAWYQHKPGKGPRLLIHYTSSLQPGIPSRFSGSGSGRDYSFSISNLEPEDIATYYCLQYDNLYTFGGGTKLEIK
notes: the Fab part of the heavy chain is in the crystal structure of Fab2 (PDB 7TE4) and in the cryo-EM models; the light chain is in the crystal structure of Fab2 (PDB 7TE4) and in the cryo-EM models; mouse immunoglobulin-gamma; raised against purified intact rat GluN1a-GluN2B NMDAR; source: hybridoma cell culture supernatant, purified (rProtein-A Sepharose)
B2: Fab2, antigen-binding fragment of IgG2 (Fab, V domains shown)
VH: DVKLQESGGGLVQPGGSLKLSCAASGFTFSSYTMSWVRQTPEKRLEWVAYISNGGGGTYYPDTVKGRFTISRDNAKNTLYLQMNSLKEDTAMYYCARPSRGGSSYWYFDVWGAGTTVTVSS
VL: DIQMTQSPSSLSASLGGKVTITCKASQDINKYIAWYQHKPGKGPRLLIHYTSSLQPGIPSRFSGSGSGRDYSFSISNLEPEDIATYYCLQYDNLYTFGGGTKLEIK
notes: heavy chain of the crystal structure of Fab2 (PDB 7TE4); as the Fab part of the heavy chain of m1; light chain of the crystal structure of Fab2 (PDB 7TE4); as the light chain of m1; source: papain proteolysis of purified IgG2, Fc removed on rProtein-A Sepharose
B3: IgG5, mouse monoclonal antibody against the GluN1-GluN2B NMDA receptor (antibody, V domains shown)
VH: DVKLQESGGGSVKLGGSLKLSCVVSGFTFSTYYMSWVRQTPEKRLELVAVINSNGGNTYYPDNVKGRFTISRDNAENTLYLQMSSLKSEDTALYYCARRDYDGFAMDYWGQGTSVTVSS
VL: DIQLTQSPASLAVSLGQRATISCRASQSVSTSRYSYMHWYQHKPGQPPKLLIKYASNLESGVPARFSGSGSGTDFTLNIHPVEEEDTATYYCQHSWENPYTFGGGTKLEIK
notes: the Fab part of the heavy chain is in the crystal structure of GluN1b-GluN2B ATD-Fab5 (PDB 7TE6) and in the cryo-EM models; the light chain is in the crystal structure of GluN1b-GluN2B ATD-Fab5 (PDB 7TE6) and in the cryo-EM models; mouse immunoglobulin-gamma; source: hybridoma cell culture supernatant, purified (rProtein-A Sepharose)

Experiments:
[1] = target: T1, purified intact rat GluN1a-GluN2B NMDA receptor (Rattus norvegicus, UniProt P35439;Q00960); test: ELISA; 96-well MaxiSorp plates covered by the GluN1a-GluN2B NMDAR proteins, in the presence of 0.005% LMNG (methods; 0.01% in the results); state of the IgG not told
T1 construct: rat GluN1a (GluN1-1a splice variant, without the exon 5-encoded motif); called intact; rat GluN2B; the immunogen and the ELISA antigen

[2] = target: T2, intact GluN1b-GluN2B NMDA receptor (Rattus norvegicus, strain); test: cryo-EM structure; receptor mixed with Fab at 1:3 (w:w), purified on Superose 6; 1 mM glycine and 1 mM glutamate; 0.002% LMNG, 0.1% digitonin; conditions: both partners purified
T2 construct: called intact; density seen for ATD, LBD and TMD; rat GluN2B; heterotetramer; Also used here for the functional rows on receptors expressed in oocytes or HEK293 cells from wild-type rat cRNA or cDNA; also called GluN1-1b-GluN2B; GluN1b-2B; source: Sf9 insect cells (EarlyBac), solubilised in 0.5% LMNG, purified (Strep-Tactin Sepharose, Superose 6); copies: 2 + 2

Row | binding result [1] | stoichiometry N [2] | Binder
1 | binds | – | B1
2 | – | 2 Fab2 per heterotetrameric channel | B2
3 | binds | – | B3
